System: Escherichia coli TOP10
Test: shrunken log2 fold change of peptide-encoding DNA abundance (4.5 h post-induction vs induction); higher = less antimicrobial activity (less host growth inhibition)
Details: time post-induction: 4.5 h; library: site-saturation at positions 5, 18, 19, 20
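Note: peptides expressed intracellularly from a pBAD plasmid library in pooled LB shake-flask culture, induced with 0.3% L-arabinose, DNA abundance read by NGS, three biological replicates, DESeq2 with apeglm shrinkage.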

## RRIRQRPPRLPRPRPRPHFCPRP
  shrunken log2 fold change: 0.0177

## RRIRMRPPRLPRPRPRPHKVPRP
  shrunken log2 fold change: 0.14

## RRIRYRPPRLPRPRPRPGTDPRP
  shrunken log2 fold change: -0.0254

## RRIRVRPPRLPRPRPRPEMLPRP
  shrunken log2 fold change: 0.0987

## RRIRQRPPRLPRPRPRPTSVPRP
  shrunken log2 fold change: 0.0377

## RRIRERPPRLPRPRPRPHMNPRP
  shrunken log2 fold change: -0.337

## RRIRYRPPRLPRPRPRPWWHPRP
  shrunken log2 fold change: -0.757

## RRIRGRPPRLPRPRPRPSEVPRP
  shrunken log2 fold change: 0.425

## RRIRYRPPRLPRPRPRPGVHPRP
  shrunken log2 fold change: -0.452

## RRIRMRPPRLPRPRPRPHWYPRP
  shrunken log2 fold change: -0.484

## RRIRQRPPRLPRPRPRPMLHPRP
  shrunken log2 fold change: -0.0433

## RRIRPRPPRLPRPRPRPIGHPRP
  shrunken log2 fold change: -0.0228

## RRIRIRPPRLPRPRPRPQGIPRP
  shrunken log2 fold change: -0.012

## RRIRGRPPRLPRPRPRPPDFPRP
  shrunken log2 fold change: 0.46

## RRIRERPPRLPRPRPRPWMDPRP
  shrunken log2 fold change: -0.101

## RRIRARPPRLPRPRPRPVMAPRP
  shrunken log2 fold change: 0.567

## RRIRARPPRLPRPRPRPGIWPRP
  shrunken log2 fold change: 0.168

## RRIRTRPPRLPRPRPRPAKGPRP
  shrunken log2 fold change: 0.0671

## RRIRARPPRLPRPRPRPAEAPRP
  shrunken log2 fold change: 0.161

## RRIRRRPPRLPRPRPRPVCIPRP
  shrunken log2 fold change: 0.0361

## RRIRWRPPRLPRPRPRPEVRPRP
  shrunken log2 fold change: 0.495

## RRIRHRPPRLPRPRPRPQDAPRP
  shrunken log2 fold change: -0.00992

## RRIRVRPPRLPRPRPRPGFYPRP
  shrunken log2 fold change: -0.345

## RRIRHRPPRLPRPRPRPMECPRP
  shrunken log2 fold change: -0.427

## RRIRGRPPRLPRPRPRPPTPPRP
  shrunken log2 fold change: 1.22

## RRIRLRPPRLPRPRPRPNALPRP
  shrunken log2 fold change: -0.0646

## RRIRWRPPRLPRPRPRPEFHPRP
  shrunken log2 fold change: 0.227

## RRIRYRPPRLPRPRPRPEHTPRP
  shrunken log2 fold change: -0.303

## RRIRGRPPRLPRPRPRPTPGPRP
  shrunken log2 fold change: 0.971

## RRIRARPPRLPRPRPRPEYHPRP
  shrunken log2 fold change: 0.0454

## RRIRRRPPRLPRPRPRPIDDPRP
  shrunken log2 fold change: -0.128

## RRIRKRPPRLPRPRPRPVYPPRP
  shrunken log2 fold change: 0.293

## RRIRKRPPRLPRPRPRPALTPRP
  shrunken log2 fold change: 0.622

## RRIRRRPPRLPRPRPRPLERPRP
  shrunken log2 fold change: 0.0981

## RRIRMRPPRLPRPRPRPLDFPRP
  shrunken log2 fold change: -0.129

## RRIRGRPPRLPRPRPRPKMPPRP
  shrunken log2 fold change: 0.434

## RRIRDRPPRLPRPRPRPQYRPRP
  shrunken log2 fold change: -0.0135

## RRIRTRPPRLPRPRPRPCWDPRP
  shrunken log2 fold change: -0.192

## RRIRVRPPRLPRPRPRPDYVPRP
  shrunken log2 fold change: -0.406

## RRIRIRPPRLPRPRPRPETPPRP
  shrunken log2 fold change: 0.207

## RRIRCRPPRLPRPRPRPHYMPRP
  shrunken log2 fold change: -0.308

## RRIRQRPPRLPRPRPRPFYCPRP
  shrunken log2 fold change: -0.314

## RRIRLRPPRLPRPRPRPCQKPRP
  shrunken log2 fold change: -0.17

## RRIRSRPPRLPRPRPRPALGPRP
  shrunken log2 fold change: 0.505

## RRIRYRPPRLPRPRPRPPAHPRP
  shrunken log2 fold change: 0.178

## RRIRMRPPRLPRPRPRPYASPRP
  shrunken log2 fold change: -0.0515

## RRIRSRPPRLPRPRPRPCLNPRP
  shrunken log2 fold change: -0.0696

## RRIRRRPPRLPRPRPRPCGHPRP
  shrunken log2 fold change: -0.0448

## RRIRDRPPRLPRPRPRPEQGPRP
  shrunken log2 fold change: 0.0995

## RRIRARPPRLPRPRPRPMNPPRP
  shrunken log2 fold change: -0.0638

## RRIRYRPPRLPRPRPRPANCPRP
  shrunken log2 fold change: -0.225

## RRIRTRPPRLPRPRPRPPWMPRP
  shrunken log2 fold change: -0.00314

## RRIRIRPPRLPRPRPRPKFSPRP
  shrunken log2 fold change: -0.244

## RRIRHRPPRLPRPRPRPVPIPRP
  shrunken log2 fold change: 0.0935

## RRIRDRPPRLPRPRPRPFPIPRP
  shrunken log2 fold change: 0.0144

## RRIRQRPPRLPRPRPRPGHQPRP
  shrunken log2 fold change: -0.00101

## RRIRRRPPRLPRPRPRPYDGPRP
  shrunken log2 fold change: -0.101

## RRIRVRPPRLPRPRPRPCHSPRP
  shrunken log2 fold change: -0.225

## RRIRQRPPRLPRPRPRPPQLPRP
  shrunken log2 fold change: 0.424

## RRIRPRPPRLPRPRPRPKECPRP
  shrunken log2 fold change: 0.241

## RRIRIRPPRLPRPRPRPACCPRP
  shrunken log2 fold change: -0.086

## RRIRRRPPRLPRPRPRPTINPRP
  shrunken log2 fold change: -0.134

## RRIRNRPPRLPRPRPRPIAQPRP
  shrunken log2 fold change: -0.00164

## RRIRKRPPRLPRPRPRPRPHPRP
  shrunken log2 fold change: 0.762

## RRIRWRPPRLPRPRPRPDGDPRP
  shrunken log2 fold change: 0.36

## RRIRFRPPRLPRPRPRPFVHPRP
  shrunken log2 fold change: -0.728

## RRIRNRPPRLPRPRPRPMCWPRP
  shrunken log2 fold change: 0.327

## RRIRMRPPRLPRPRPRPKCTPRP
  shrunken log2 fold change: 0.995

## RRIRSRPPRLPRPRPRPMETPRP
  shrunken log2 fold change: 0.585

## RRIRKRPPRLPRPRPRPDKFPRP
  shrunken log2 fold change: 0.126

## RRIRFRPPRLPRPRPRPCQWPRP
  shrunken log2 fold change: 0.0155

## RRIRKRPPRLPRPRPRPRNYPRP
  shrunken log2 fold change: 0.374

## RRIRPRPPRLPRPRPRPMLSPRP
  shrunken log2 fold change: 0.0181

## RRIRRRPPRLPRPRPRPCKWPRP
  shrunken log2 fold change: -0.0414

## RRIRARPPRLPRPRPRPEDKPRP
  shrunken log2 fold change: 1.89

## RRIRGRPPRLPRPRPRPGPQPRP
  shrunken log2 fold change: 0.719

## RRIRSRPPRLPRPRPRPENMPRP
  shrunken log2 fold change: -0.459

## RRIRFRPPRLPRPRPRPKAEPRP
  shrunken log2 fold change: 0.00911

## RRIRRRPPRLPRPRPRPTMCPRP
  shrunken log2 fold change: 0.233

## RRIRTRPPRLPRPRPRPPIGPRP
  shrunken log2 fold change: 0.0445

## RRIRVRPPRLPRPRPRPERDPRP
  shrunken log2 fold change: -0.15

## RRIRWRPPRLPRPRPRPDPHPRP
  shrunken log2 fold change: 0.135

## RRIRARPPRLPRPRPRPRWKPRP
  shrunken log2 fold change: 0.462

## RRIRWRPPRLPRPRPRPMNTPRP
  shrunken log2 fold change: -0.28

## RRIRERPPRLPRPRPRPCGWPRP
  shrunken log2 fold change: 0.154

## RRIRHRPPRLPRPRPRPRSCPRP
  shrunken log2 fold change: -0.0982

## RRIRHRPPRLPRPRPRPNFHPRP
  shrunken log2 fold change: -0.407

## RRIRERPPRLPRPRPRPDPVPRP
  shrunken log2 fold change: 0.181

## RRIRCRPPRLPRPRPRPNTLPRP
  shrunken log2 fold change: -0.535

## RRIRNRPPRLPRPRPRPLSRPRP
  shrunken log2 fold change: -0.124

## RRIRFRPPRLPRPRPRPRRCPRP
  shrunken log2 fold change: 0.143

## RRIRERPPRLPRPRPRPHQGPRP
  shrunken log2 fold change: 0.0963

## RRIRHRPPRLPRPRPRPENNPRP
  shrunken log2 fold change: -0.304

## RRIRRRPPRLPRPRPRPKPLPRP
  shrunken log2 fold change: 0.474

## RRIRWRPPRLPRPRPRPILEPRP
  shrunken log2 fold change: -0.548

## RRIRMRPPRLPRPRPRPMPYPRP
  shrunken log2 fold change: 0.018

## RRIRERPPRLPRPRPRPIKIPRP
  shrunken log2 fold change: -0.681

## RRIRERPPRLPRPRPRPANQPRP
  shrunken log2 fold change: 0.0465

## RRIRFRPPRLPRPRPRPPWGPRP
  shrunken log2 fold change: 0.399

## RRIRVRPPRLPRPRPRPCTIPRP
  shrunken log2 fold change: -0.0586

## RRIRLRPPRLPRPRPRPHYRPRP
  shrunken log2 fold change: -0.0911

## RRIRTRPPRLPRPRPRPFKIPRP
  shrunken log2 fold change: -0.0514

## RRIRFRPPRLPRPRPRPICCPRP
  shrunken log2 fold change: -0.134

## RRIRSRPPRLPRPRPRPEYHPRP
  shrunken log2 fold change: -0.282

## RRIRRRPPRLPRPRPRPPQWPRP
  shrunken log2 fold change: 0.66

## RRIRRRPPRLPRPRPRPDVKPRP
  shrunken log2 fold change: 3.47

## RRIRSRPPRLPRPRPRPMPGPRP
  shrunken log2 fold change: -0.102

## RRIRPRPPRLPRPRPRPDLQPRP
  shrunken log2 fold change: -0.221

## RRIRTRPPRLPRPRPRPEPEPRP
  shrunken log2 fold change: 0.323

## RRIRRRPPRLPRPRPRPNHEPRP
  shrunken log2 fold change: -0.0399

## RRIRLRPPRLPRPRPRPGVNPRP
  shrunken log2 fold change: 0.0348

## RRIRVRPPRLPRPRPRPTNIPRP
  shrunken log2 fold change: -0.783

## RRIRRRPPRLPRPRPRPLDAPRP
  shrunken log2 fold change: 0.472

## RRIRCRPPRLPRPRPRPSWKPRP
  shrunken log2 fold change: -0.0761

## RRIRSRPPRLPRPRPRPMVDPRP
  shrunken log2 fold change: 0.197

## RRIRWRPPRLPRPRPRPESCPRP
  shrunken log2 fold change: 0.261

## RRIRRRPPRLPRPRPRPHIQPRP
  shrunken log2 fold change: -0.114

## RRIRDRPPRLPRPRPRPIPHPRP
  shrunken log2 fold change: -0.051

## RRIRCRPPRLPRPRPRPVDIPRP
  shrunken log2 fold change: -0.241

## RRIRDRPPRLPRPRPRPGTKPRP
  shrunken log2 fold change: -0.0282

## RRIRLRPPRLPRPRPRPKICPRP
  shrunken log2 fold change: 0.0221

## RRIRFRPPRLPRPRPRPEDHPRP
  shrunken log2 fold change: 0.000834

## RRIRLRPPRLPRPRPRPYDCPRP
  shrunken log2 fold change: 0.0192

## RRIRHRPPRLPRPRPRPWLYPRP
  shrunken log2 fold change: -0.217

## RRIRMRPPRLPRPRPRPRTMPRP
  shrunken log2 fold change: 0.926
